This test concerns the target c-Kit (CD117) on human undifferentiated blood cells (UT-7, M07e, cord blood-derived CD34 positive cells) (human, UniProt P10721 26-976). Kind of test: cell-based or functional assay.

Chain of c-Kit (CD117) on human undifferentiated blood cells (UT-7, M07e, cord blood-derived CD34 positive cells) (P10721 26-976): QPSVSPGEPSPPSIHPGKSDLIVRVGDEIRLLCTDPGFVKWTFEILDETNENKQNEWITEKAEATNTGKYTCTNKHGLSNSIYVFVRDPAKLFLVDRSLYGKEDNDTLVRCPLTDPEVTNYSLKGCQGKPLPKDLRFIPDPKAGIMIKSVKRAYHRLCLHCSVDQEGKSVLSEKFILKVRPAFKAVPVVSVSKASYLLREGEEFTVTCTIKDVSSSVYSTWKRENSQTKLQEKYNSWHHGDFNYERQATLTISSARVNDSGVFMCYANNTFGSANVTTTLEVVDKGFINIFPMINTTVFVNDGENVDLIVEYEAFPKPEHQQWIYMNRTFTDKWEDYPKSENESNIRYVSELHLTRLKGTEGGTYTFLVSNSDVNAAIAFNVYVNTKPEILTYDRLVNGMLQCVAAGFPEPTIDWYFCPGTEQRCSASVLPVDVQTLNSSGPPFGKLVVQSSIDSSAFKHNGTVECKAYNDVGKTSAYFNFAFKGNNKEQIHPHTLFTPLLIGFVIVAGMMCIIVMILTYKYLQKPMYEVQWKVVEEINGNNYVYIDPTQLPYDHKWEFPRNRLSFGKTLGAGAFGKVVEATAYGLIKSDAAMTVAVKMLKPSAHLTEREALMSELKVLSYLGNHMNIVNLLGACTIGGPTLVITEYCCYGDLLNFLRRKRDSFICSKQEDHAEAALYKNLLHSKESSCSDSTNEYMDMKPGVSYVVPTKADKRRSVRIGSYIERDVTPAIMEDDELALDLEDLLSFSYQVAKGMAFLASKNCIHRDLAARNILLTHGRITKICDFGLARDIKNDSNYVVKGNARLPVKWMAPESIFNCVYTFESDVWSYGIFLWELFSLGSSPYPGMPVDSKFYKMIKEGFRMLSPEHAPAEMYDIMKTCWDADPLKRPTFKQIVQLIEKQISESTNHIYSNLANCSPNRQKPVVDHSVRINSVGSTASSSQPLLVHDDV

B1: polypeptide (CARex-mSCF), being CAR extracellular region linked with mouse SCF (other)
chain: LSITTPEEMIEKAKGETAYLPCKFTLSPEDQGPLDIEWLISPADNQKVDQVIILYSGDKIYDDYYPDLKGRVHFTSNDLKSGDASINVTNLQLSDIGTYQCKVKKAPGVANKKIHLVVLVKPSGARCYVDGSEEIGSDFKIKCEPKEGSLPLQYEWQKLSDSQKMPTSWLAEMTSSVISVKNASSEYSGTYSCTVRNRVGSDQCLLRLNVVPPSNKAHHHHHHSASASAKEICGNPVTDNVKDITKLVANLPNDYMITLNYVAGMDVLPSHCWLRDMVIQLSLSLTTLLDKFSNISEGLSNYSIIDKLGKIVDDLVLCMEENAPKNIKESPKRPETRSFTPEEFFSIFNRSIDAFKDFMVASDTSDCVLSSTLGPEKDSRVSVTKPFMLPPVA
With B1, the “GFP positive cell ratio, M07e cells, Ax1CAgfp at MOI 100 (adenovirus alone 0.5%)” value is 82%.

Source of the values: patent US20030092068A1 (ASAHI KASEI, published 2003).
